In article PMC5741687, “A Novel Role for CSRP1 in a Lebanese Family with Congenital Cardiac Defects” (Frontiers in Genetics, 2017):

T1: HA-tagged serum response factor (SRF) (UniProt P11831 1-508)
T1 sequence (looked up): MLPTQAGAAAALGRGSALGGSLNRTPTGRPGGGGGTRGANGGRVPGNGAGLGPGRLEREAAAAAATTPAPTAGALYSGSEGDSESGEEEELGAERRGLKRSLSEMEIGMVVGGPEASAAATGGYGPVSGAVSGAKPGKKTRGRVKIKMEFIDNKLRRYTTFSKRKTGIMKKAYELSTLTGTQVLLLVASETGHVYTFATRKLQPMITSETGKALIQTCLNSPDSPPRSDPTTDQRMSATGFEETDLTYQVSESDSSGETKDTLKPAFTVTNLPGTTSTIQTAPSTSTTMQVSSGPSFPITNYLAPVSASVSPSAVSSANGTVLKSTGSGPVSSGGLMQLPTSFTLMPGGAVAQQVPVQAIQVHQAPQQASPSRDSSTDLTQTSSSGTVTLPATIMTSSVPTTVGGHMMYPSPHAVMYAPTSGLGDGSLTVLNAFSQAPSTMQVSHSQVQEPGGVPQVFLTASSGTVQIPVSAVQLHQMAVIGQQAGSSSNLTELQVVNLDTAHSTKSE

T2: HA-tagged TBX5 (UniProt Q99593 1-518)
T2 sequence (looked up): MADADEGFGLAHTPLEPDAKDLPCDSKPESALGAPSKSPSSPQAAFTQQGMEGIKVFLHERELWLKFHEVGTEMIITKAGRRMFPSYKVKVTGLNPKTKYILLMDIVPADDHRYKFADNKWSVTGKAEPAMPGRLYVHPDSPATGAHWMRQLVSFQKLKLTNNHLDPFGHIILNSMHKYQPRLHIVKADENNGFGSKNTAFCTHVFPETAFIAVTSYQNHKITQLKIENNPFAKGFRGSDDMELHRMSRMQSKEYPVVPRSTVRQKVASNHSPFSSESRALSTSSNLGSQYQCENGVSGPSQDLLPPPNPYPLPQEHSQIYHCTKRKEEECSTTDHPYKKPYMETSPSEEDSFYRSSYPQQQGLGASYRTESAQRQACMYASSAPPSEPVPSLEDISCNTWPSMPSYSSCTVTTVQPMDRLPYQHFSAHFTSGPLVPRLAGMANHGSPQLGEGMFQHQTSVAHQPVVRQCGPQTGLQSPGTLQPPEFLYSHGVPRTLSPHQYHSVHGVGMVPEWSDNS

B1: Flag-tagged wild type human CSRP1 (natural protein, UniProt P21291 1-193, looked up)
chain: MPNWGGGKKCGVCQKTVYFAEEVQCEGNSFHKSCFLCMVCKKNLDSTTVAVHGEEIYCKSCYGKKYGPKGYGYGQGAGTLSTDKGESLGIKHEEAPGHRPTTNPNASKFAQKIGGSERCPRCSQAVYAAEKVIGAGKSWHKACFRCAKCGKGLESTTLADKDGEIYCKGCYAKNFGPKGFGFGQGAGALVHSE

Key:
HA-tagged GATA4 [1] = biological target: HA-tagged GATA4 (UniProt P43694); assay: co-IP; nuclear extracts (200 ug protein) of HEK293 cells transiently overexpressing both proteins; anti-HA on Dynabeads Protein G, 2 h at RT, washed three times with PBS; blot with anti-Flag, then stripped and probed with anti-HA
HA-tagged GATA6 = HA-tagged GATA6 (UniProt Q92908); assay: as above
[2] = biological target: HA-tagged serum response factor (SRF) (UniProt P11831); assay: as above
HA-tagged TBX5 [3] = biological target: HA-tagged TBX5 (UniProt Q99593); assay: as above
[4] = biological target: HA-tagged serum response factor (SRF) (UniProt P11831)
HA-tagged GATA4 [5] = biological target: HA-tagged GATA4 (UniProt P43694)
HA-tagged GATA4 [6] = biological target: HA-tagged GATA4 (UniProt P43694 1-442); assay: cell-based or functional assay
[7] = biological target: T1, HA-tagged serum response factor (SRF); assay: cell-based or functional assay
HA-tagged TBX5 [8] = biological target: T2, HA-tagged TBX5; assay: cell-based or functional assay

Chain of HA-tagged GATA4 (UniProt P43694) (P43694 whole entry): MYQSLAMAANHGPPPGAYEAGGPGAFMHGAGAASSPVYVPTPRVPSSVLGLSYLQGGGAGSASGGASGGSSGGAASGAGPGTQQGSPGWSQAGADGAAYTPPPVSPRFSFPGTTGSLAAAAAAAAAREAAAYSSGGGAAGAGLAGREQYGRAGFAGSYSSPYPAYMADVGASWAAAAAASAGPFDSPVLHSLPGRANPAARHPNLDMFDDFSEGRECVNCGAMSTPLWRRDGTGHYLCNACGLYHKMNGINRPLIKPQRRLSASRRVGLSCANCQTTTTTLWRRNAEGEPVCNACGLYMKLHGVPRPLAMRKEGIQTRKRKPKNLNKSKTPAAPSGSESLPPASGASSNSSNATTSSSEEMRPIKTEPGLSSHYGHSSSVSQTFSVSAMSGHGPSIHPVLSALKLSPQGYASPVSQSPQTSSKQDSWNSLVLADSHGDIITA
Chain of HA-tagged GATA4 (UniProt P43694 1-442) (P43694 whole entry): as above
Chain of HA-tagged GATA6 (Q92908 whole entry): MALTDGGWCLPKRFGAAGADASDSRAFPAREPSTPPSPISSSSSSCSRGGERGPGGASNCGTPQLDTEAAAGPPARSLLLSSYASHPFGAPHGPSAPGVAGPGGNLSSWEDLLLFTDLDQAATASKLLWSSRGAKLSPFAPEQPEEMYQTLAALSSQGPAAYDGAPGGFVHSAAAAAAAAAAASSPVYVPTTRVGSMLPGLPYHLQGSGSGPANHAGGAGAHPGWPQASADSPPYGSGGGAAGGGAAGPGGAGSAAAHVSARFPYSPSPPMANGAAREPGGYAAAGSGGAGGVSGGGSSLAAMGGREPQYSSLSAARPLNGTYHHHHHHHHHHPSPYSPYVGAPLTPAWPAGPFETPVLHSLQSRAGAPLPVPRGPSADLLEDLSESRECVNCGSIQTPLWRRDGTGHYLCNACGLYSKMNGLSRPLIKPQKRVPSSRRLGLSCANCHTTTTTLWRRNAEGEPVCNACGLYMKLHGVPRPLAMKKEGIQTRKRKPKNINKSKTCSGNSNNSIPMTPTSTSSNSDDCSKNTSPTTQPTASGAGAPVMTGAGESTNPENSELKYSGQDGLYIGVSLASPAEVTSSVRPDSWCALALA

| Molecule | percent inhibition of the co-precipitation against wild-type CSRP1 (HA-tagged GATA4 [1]) [%] | percent increase of the co-precipitation against wild-type CSRP1 (HA-tagged GATA6) [%] | percent inhibition of the co-precipitation against wild-type CSRP1 [2] [%] | percent decrease of the co-precipitation against wild-type CSRP1 (HA-tagged TBX5 [3]) [%] | percent inhibition of the synergy with SRF over the NPPA-luciferase promoter, co-transfection in HEK293 cells [4] [%] | synergy on the NPPA, VEGF and NOS3 luciferase promoters, co-transfection assays, fold activation (promoter of the number not told); synergy completely lost (HA-tagged GATA4 [5]) [fold] | synergy on the NPPA, VEGF and NOS3 luciferase promoters, co-transfection assays, fold activation (promoter of the number not told) (HA-tagged GATA4 [6]) [fold] | synergistic activation of the NOS3-luciferase promoter, co-transfection in HEK293 cells, fold activation [7] [fold] | synergistic activation of the NPPA-luciferase promoter, co-transfection in HEK293 cells, fold activation [7] [fold] | synergistic activation of the VEGF-luciferase promoter, co-transfection in HEK293 cells, fold activation [7] [fold] | synergistic activation of the NPPA, VEGF and NOS3 luciferase promoters, co-transfection in HEK293 (CSRP1 400 and 600 ng, TBX5 200 and 400 ng); highest value on the NOS3 promoter (HA-tagged TBX5 [8]) [fold] |
| --- | --- | --- | --- | --- | --- | --- | --- | --- | --- | --- | --- |
| Flag-tagged p.E154Vfs*99 CSRP1 mutant (from UniProt P21291 1-153) (natural protein) | < 85 | 15 | 82 | < 55.3 | 50 | 5 |  |  |  |  |  |
| B1 |  |  |  |  |  |  | 22 | 14 | 100 | 22.3 | 40 |
